These results are taken from PMC11782662, “Phase separation of a microtubule plus-end tracking protein into a fluid fractal network” (Nature Communications, 2025).

This data set concerns the molecule itself. The data set can be described thus: SEC-SAXS; Shodex KW-404 column in line with SAXS; 20 mM Tris-HCl, pH 7.5, 500 mM NaCl, 2% glycerol, 1 mM DTT; injected at 4, 6 and 8 mg/ml; ab initio envelopes (DAMMIF).

B1: Bik1 ΔQQFF (domain or fragment, S. cerevisiae, UniProt P11709 1-436, looked up)
chain: MDRYQRKIGCFIQIPNLGRGQLKYVGPVDTKAGMFAGVDLLANIGKNDGSFMGKKYFQTEYPQSGLFIQLQKVASLIEKASISQTSRRTTMEPLSIPKNRSIVRLTNQFSPMDDPKSPTPMRSFRITSRHSGNQQSMDQEASDHHQQQEFGYDNREDRMEVDSILSSDRKANHNTTSDWKPDNGHMNDLNSSEVTIELREAQLTIEKLQRKQLHYKRLLDDQRMVLEEVQPTFDRYEATIQEREKEIDHLKQQLELERRQQAKQKQFFDAENEQLLAVVSQLHEEIKENEERNLSHNQPTGANEDVELLKKQLEQLRNIEDQFELHKTKWAKEREQLKMHNDSLSKEYQNLSKELFLTKPQDSSSEEVASLTKKLEEANEKIKQLEQAQAQTAVESLPIFDPPAPVDTTAGRQQWCEHCDTMGHNTAECPHHNPDN
notes: Bik1, S. cerevisiae, UniProt P11709, lacking the C-terminal EEY/F-like motif (peptide Gln-Gln-Phe-Phe); N-terminal 6xHis-tag followed by a PreScission site, tag retained; source: E. coli BL21-CodonPlus (DE3)-RIPL, purified (IMAC, SEC); not shown: His6, N-terminal, kept
B1: the binding result is recorded as “binds”.

B2: N-terminally His-tagged, full-length Bik1 (natural protein, S. cerevisiae, UniProt P11709 1-440, looked up)
chain: MDRYQRKIGCFIQIPNLGRGQLKYVGPVDTKAGMFAGVDLLANIGKNDGSFMGKKYFQTEYPQSGLFIQLQKVASLIEKASISQTSRRTTMEPLSIPKNRSIVRLTNQFSPMDDPKSPTPMRSFRITSRHSGNQQSMDQEASDHHQQQEFGYDNREDRMEVDSILSSDRKANHNTTSDWKPDNGHMNDLNSSEVTIELREAQLTIEKLQRKQLHYKRLLDDQRMVLEEVQPTFDRYEATIQEREKEIDHLKQQLELERRQQAKQKQFFDAENEQLLAVVSQLHEEIKENEERNLSHNQPTGANEDVELLKKQLEQLRNIEDQFELHKTKWAKEREQLKMHNDSLSKEYQNLSKELFLTKPQDSSSEEVASLTKKLEEANEKIKQLEQAQAQTAVESLPIFDPPAPVDTTAGRQQWCEHCDTMGHNTAECPHHNPDNQQFF
notes: Bik1, S. cerevisiae, UniProt P11709, full length (domains described over residues 1-440); Vector PSPCm2: N-terminal 6xHis-tag followed by a PreScission cleavage site; also called Bik1 FL; FL; source: E. coli BL21-CodonPlus (DE3)-RIPL, purified (IMAC, SEC); not shown: His6, N-terminal, kept
Regarding B2, the “stoichiometry N” value is 2.
